{
  "source": "paper PMC5952258",
  "about": "(ACS Infectious Diseases, 2018)",
  "target": "the molecule itself",
  "experiment": "crystal structure; sitting drop vapor diffusion at 18 °C; 25% (w/v) PEG 3350, 0.1 M Bis-Tris pH 5.6, 0.1 M ammonium sulfate; resolved to 2.0 Å",
  "data": [
    {"protein": "Rv2466c C22S mutant (enzyme) not shown", "values": [
      {"measurement": "binding result", "value": "binds"}
    ]}
  ]
}
